Laboratory results: patent publication US20190367615A1 (BEIJING HANMI PHARM, published 2019)

Columns and labels:
[1] = molecular target: Recombinant monkey PD-1 (Sino Biological Inc.) (monkey); experiment: species specificity ELISA, coated recombinant monkey PD-1 (1 ug/mL), anti-human IgG-HRP, OD450nm
Experimental: (§1) Recombinant human PD-1, monkey PD-1, rat PD-1 and mouse PD-1 (all purchased from Sino Biological Inc.), were coated on a 96-well high-absorbing ELISA plate with a carbonate buffer solution with pH 9.6, the coating concentration was 1 μg/mL, the coating amount was 100 μL per well, and the coating was carried out at 4° C. overnight. The plate was washed five times with PBST and blocked with 300 μL/well of PBST containing 1% BSA, and then incubated at 25° C. for 1 hour. The plate was washed five times with PBST. […] The plate was washed five times with PBST. Then, horseradish peroxidase-labeled anti-human IgG antibody (Chemicon, Catalog Number AP309P) 1:2000 diluted in PBST containing 1% BSA was added, 100 μL per well, incubated at 25° C. for 1 hour. The plate was washed five times with PBST. 100 μL/well of colorimetric substrate TMB was added and incubated at room temperature for 10 minutes. Color development was terminated by adding 100 μL/well of 1 M H₂SO₄: The absorbance at 450 nm was read on a microplate reader.

[2] = molecular target: T1, Recombinant mouse PD-1 (Sino Biological Inc.) (mouse, UniProt Q02242 25-167); experiment: species specificity ELISA, coated recombinant mouse PD-1, anti-human IgG-HRP
T1 sequence (looked up): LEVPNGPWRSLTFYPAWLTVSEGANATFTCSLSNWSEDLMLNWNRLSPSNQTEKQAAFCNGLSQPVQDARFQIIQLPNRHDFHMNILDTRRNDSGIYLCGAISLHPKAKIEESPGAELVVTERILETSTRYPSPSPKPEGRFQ
Experimental: as §1

[3] = molecular target: T2, Recombinant human CTLA4 (Sino Biological Inc.) (human, UniProt P16410 36-162); experiment: binding specificity ELISA, coated recombinant human CTLA4, anti-human IgG-HRP
T2 sequence (looked up): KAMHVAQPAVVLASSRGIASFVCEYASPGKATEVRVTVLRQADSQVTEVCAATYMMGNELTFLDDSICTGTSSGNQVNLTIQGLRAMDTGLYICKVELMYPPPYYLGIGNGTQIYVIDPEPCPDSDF
Experimental: (§2) The plate was washed five times with PBST and blocked with 300 μL/well of PBST containing 1% BSA and incubated at 25° C. for 1 hour. The plate was washed five times with PBST. […] The plate was washed five times with PBST. Then, horseradish peroxidase-labeled anti-human IgG antibody (Chemicon, Catalog Number AP309P) 1:2000 diluted in PBST containing 1% BSA was added, 100 μL was added to each well, incubated at 25° C. for 1 hour. The plate was washed five times with PBST. 100 μL/well of colorimetric substrate TMB was added and incubated at room temperature for 10 minutes. Color development was terminated by adding 100 μL/well of 1 M H₂SO₄. The absorbance at 450 nm was read on a microplate reader.

[4] = molecular target: T3, Recombinant human ICOS (Sino Biological Inc.) (human, UniProt Q9Y6W8 21-141); experiment: binding specificity ELISA, coated recombinant human ICOS, anti-human IgG-HRP
T3 sequence (looked up): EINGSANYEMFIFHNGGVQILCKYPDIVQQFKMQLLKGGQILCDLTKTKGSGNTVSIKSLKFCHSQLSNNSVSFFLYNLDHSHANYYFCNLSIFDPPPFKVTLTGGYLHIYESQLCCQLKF
Experimental: as §2

[5] = molecular target: T4, Recombinant human B7-H2 (Sino Biological Inc.) (human, UniProt O75144 19-256, limits assumed); experiment: binding specificity ELISA, coated recombinant human B7-H2, anti-human IgG-HRP
T4 sequence (looked up): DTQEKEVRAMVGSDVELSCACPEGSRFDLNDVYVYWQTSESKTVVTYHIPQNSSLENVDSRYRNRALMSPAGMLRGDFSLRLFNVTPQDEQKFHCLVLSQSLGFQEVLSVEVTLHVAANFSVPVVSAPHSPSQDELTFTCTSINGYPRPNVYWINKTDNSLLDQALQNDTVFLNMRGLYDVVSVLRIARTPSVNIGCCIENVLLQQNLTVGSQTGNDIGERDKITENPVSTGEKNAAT
Experimental: as §2

[6] = molecular target: T5, Recombinant human PD-1 (Sino Biological Inc., Catalog Number 10377-H08H) (human, UniProt Q15116 25-167); experiment: SPR (Biacore X100), antibody captured on anti-human IgG CM5 chip, PD-1 as analyte
T5 construct: Bought protein; also called antigen PD-1
Experimental: The instrument utilizes an optical surface plasmon resonance technique to detect association and dissociation between a molecule coupled on a sensor chip and an analyte. CM5 chips (GE Healthcare, BR-1000-12) were used. […] In the association phase, the antigen PD-1 was diluted to multiple concentrations with a running buffer, and injected at a rate of 30 μL/min for 180 seconds. In the dissociation phase, the duration of the dissociation was 1200 seconds. Glycine solution (GE Healthcare, BR-1003-54) was used to regenerate for 30 seconds at a speed of 10 μL/min. […] Association rate constant and dissociation rate constant were analyzed and calculated by Biacore X100 evaluation software.

[7] = molecular target: T6, Recombinant human PD-1-Fc (human, UniProt Q15116 25-167, limits assumed); experiment: competition ELISA, coated human PD-1-Fc, blocked ligand biotin-labeled PD-L2 (final 160 nM), streptavidin-HRP, OD450nm [panel PD-1/PD-L2 Blocking Activity]
T6 construct: also called recombinant human PD-1-Fc protein; not shown: Fc part
Experimental: Recombinant human PD-1-Fc was coated on a 96-well high-absorbing ELISA plate with a carbonate buffer solution with pH 9.6, the coating concentration was 1 μg/mL, the coating amount was 100 μL per well, and the coating was carried at 4° C. out overnight. The plate was washed five times with PBST and blocked with 300 μL/well of PBST containing 1% BSA and incubated at 25° C. for 1 hour. The plate was washed five times with PBST. The positive control and the anti-human PD-1 antibody sample were added, 50 μL per well. […] The plate was washed five times with PBST. Then, Streptavidin-HRP (BD Pharmingen, Catalog Number 554066) 1:1000 diluted in PBST containing 1% BSA was added, 100 μL per well, incubated at 25° C. for 1 hour. The plate was washed five times with PBST. 100 μL/well of colorimetric substrate TMB was added and incubated at room temperature for 10 minutes. Color development was terminated by adding 100 μL/well of 1 M H₂SO₄. The absorbance at 450 nm was read on a microplate reader.

T5 sequence (Q15116 25-167 limits assumed): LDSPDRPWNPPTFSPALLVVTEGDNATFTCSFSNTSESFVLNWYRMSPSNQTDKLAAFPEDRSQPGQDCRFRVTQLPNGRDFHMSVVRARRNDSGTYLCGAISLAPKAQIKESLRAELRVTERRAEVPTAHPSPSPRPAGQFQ
T6 sequence (Q15116 25-167 limits assumed): as above

B1: anti-human PD-1 chimeric monoclonal antibody (antibody, human IgG4 S228P, kappa, V domains shown)
VH: EVQLQESGGGLVKPGGSLKLSCAASGFTFSSYGMSWVRQTPEKRLEWVASISGGGRYTYYPDSMKGRFTISRDNAKNNLHLQMSSLRSEDTALYYCVYEYFYTMDYWGQGTSVTVSS
VL: DIVLTQSPATLSVTPGDSVSLSCRANQSISNNLHWYQQRSHESPRLLIRFASQSISGIPSRFSGSGSGTDFTLSINSVETEDFGMYFCQQSDNWPLTFGAGTKLEIKR
notes: expressed in 293F cells; also called Anti-human PD-1 Chimeric Antibody; chimeric anti-human PD-1 monoclonal antibody
In the case of B1, the EC50 [1] is reported as 0.1 nM, the binding result [2] is reported as “no binding (tested: about 20 nM)” and the binding result [3] is reported as “no binding”. For the same binder, the binding result [4] was “no binding”, the binding result [5] was “no binding” and the Kd [6] was 1.37 nM. For the same binder, the koff [6] was 0.000295 s⁻¹, the kon [6] was 215000 M⁻¹ s⁻¹ and the IC50 [7] was 0.895 nM.
